Test results taken from article PMC10516418.
pKd: −log10 of the molar value.

Biological target: HMPV F v3B_Δ12 (human metapneumovirus)
Test: BLI; Octet Red384; […] (500.0 nM to 7.8 nM), 300 s association and 300 s dissociation; 30°C, […]; global 1:1 fit

Question: With MPE8 antigen-binding fragment (Fab) as the substance, how does the pKd read?
Answer: The pKd was 7.68.
